Reference: article PMC4936685

Biological target: Recombinant human latent TGF-β1 (small latent complex, SLC: LAP with mature TGF-β1) (human) (UniProt P01137)
Test: SPR; Biacore 3000; LAP or latent TGF-β1 amine-coupled to a CM5 chip (1000 RU); PSG9-Fc injected at 6, 4, 2, 1, 0.5 and 0.25 μM, 10 μl/min, 25°C, HBS-EP (0.01 M HEPES pH 7.4, 0.15 M NaCl, 3 mM EDTA, 0.005% P20); 1:1 Langmuir model

Sequence of UniProt P01137 (P01137 whole entry, one chain of several): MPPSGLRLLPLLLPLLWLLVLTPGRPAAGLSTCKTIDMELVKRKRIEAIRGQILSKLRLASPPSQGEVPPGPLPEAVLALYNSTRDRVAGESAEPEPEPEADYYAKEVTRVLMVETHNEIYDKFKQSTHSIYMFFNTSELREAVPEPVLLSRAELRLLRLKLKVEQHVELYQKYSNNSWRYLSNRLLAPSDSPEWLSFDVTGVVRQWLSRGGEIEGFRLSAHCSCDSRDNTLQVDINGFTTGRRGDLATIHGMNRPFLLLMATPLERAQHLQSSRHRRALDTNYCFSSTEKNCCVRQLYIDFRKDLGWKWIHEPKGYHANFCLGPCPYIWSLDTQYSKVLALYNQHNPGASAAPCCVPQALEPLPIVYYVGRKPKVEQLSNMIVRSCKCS

Work on “PSG9-Fc (recombinant human pregnancy-specific glycoprotein 9 with the N, A1, A2 and B2 domains, fused to the Fc of human IgG1) (from UniProt Q00887-1 35-426) (Fc fusion)” yielded a Kd of 560 nM, a koff of 0.00065 s⁻¹ and a kon of 1150 M⁻¹ s⁻¹.
